Values quoted from earlier work, collected in article PMC4370575.

What was measured:
Mms2 (Homo sapiens) = Mms2 (Homo sapiens) (UniProt Q15819)
UbcH5c~Ub (Homo sapiens) = UbcH5c~Ub (Homo sapiens) (UniProt P61077)

Sequence of UniProt Q15819 (Q15819 2-145): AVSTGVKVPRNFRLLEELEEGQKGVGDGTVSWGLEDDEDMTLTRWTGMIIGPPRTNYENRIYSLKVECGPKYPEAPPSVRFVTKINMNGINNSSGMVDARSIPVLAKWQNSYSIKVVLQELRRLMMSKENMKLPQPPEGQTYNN

Row | Substance | Kd (Mms2 (Homo sapiens)) [µM] | Kd (UbcH5c~Ub (Homo sapiens)) [µM]
1 | Ubc13 (from UniProt P61088) | 2 | 
2 | UbcH5c~Ub (from UniProt P61077) |  | 25
